# US20250340667A1, “Cancer Treatment comprising an anti-MSLN/CD137 antibody and a chemotherapeutic” (Merck Patent GmbH, priority 2022, published 2025)
# “And” between values parts separate entries of the source, which are not always exact repeats. Identical values can stand only once. Like-named read-outs stand apart in the source and are kept apart here.
# T1: mouse MSLN (Mus musculus, UniProt Q61468)
# T1 sequence (Q61468 36-600): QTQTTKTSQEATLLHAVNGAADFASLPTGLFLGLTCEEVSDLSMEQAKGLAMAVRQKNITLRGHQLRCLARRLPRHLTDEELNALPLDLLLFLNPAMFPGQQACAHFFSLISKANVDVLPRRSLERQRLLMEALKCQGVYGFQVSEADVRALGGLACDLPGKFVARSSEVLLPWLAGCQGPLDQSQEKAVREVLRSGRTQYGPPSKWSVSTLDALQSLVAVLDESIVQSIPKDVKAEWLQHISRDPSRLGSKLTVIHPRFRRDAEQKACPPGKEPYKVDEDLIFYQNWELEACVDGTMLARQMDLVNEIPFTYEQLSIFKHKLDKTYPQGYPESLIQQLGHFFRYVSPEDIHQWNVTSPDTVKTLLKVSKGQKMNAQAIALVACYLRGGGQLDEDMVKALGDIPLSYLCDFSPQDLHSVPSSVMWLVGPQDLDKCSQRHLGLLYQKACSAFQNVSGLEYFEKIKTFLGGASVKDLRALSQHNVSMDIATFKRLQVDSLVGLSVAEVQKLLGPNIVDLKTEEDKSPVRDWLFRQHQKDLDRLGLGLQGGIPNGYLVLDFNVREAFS
# Key:
# [1] = system: CT26 colon cancer cells; format: in vivo; conditions: for median survival: isotype control 17 days; for complete tumor regression: number of mice with complete regression per group; for tumor growth inhibition (TGI): relative to the isotype control
# Description: (§1) The efficacy of the combination of an antibody molecule that binds MSLN and CD137 and a chemotherapeutic in enhancing an anti-cancer immune response compared to monotherapy with either the antibody molecule that binds MSLN and CD137 or the chemotherapeutic was assessed by studying the average tumour volume over time and prolonged survival in mouse tumour models. These mouse tumor models are described in more detail below.
# (§2) CT26 cells were obtained from ATCC and cultured in RPMI media containing 2 mM L-glutamine, 10 mM HEPES, 1 mM sodium pyruvate, 4500 mg/L glucose, 1500 mg/L sodium bicarbonate, and 10% fetal bovine serum (FBS). JC cells were obtained from ATCC and were maintained in vitro as a monolayer culture at WuXi in RPMI-1640 supplemented with 10% heat-inactivated FBS. These tumor cell lines were individually maintained in vitro as monolayer cultures and grown at 37° C. in an atmosphere of 5% CO2. The cells were routinely sub-cultured twice weekly by TrypLE treatment. The cells growing in an exponential growth phase were harvested and counted for tumor inoculation. Wild-type BALB/c female mice were purchased from Charles River Laboratories, or from Lingchang Biological Technology Co. LTD. All mice were 8-12 weeks old at the start of studies and were housed and maintained as described below, under conditions that conform to The Guide for the Care and Use of Laboratory Animals, 8th Edition. All animal experiments were performed in accordance with EMD Serono Research Institutional (protocol 17-008, 20-005) and Wuxi AppTec Animal Care and Use Committee (IACUC) guidelines.
# (§3) CT26 and JC tumor models were used to investigate the antitumor effect of a combination of an antibody molecule that binds MSLN and CD137 and a chemotherapeutic compared to monotherapy with the antibody molecule that binds MSLN and CD137 or the chemotherapeutic. Mice were treated with the anti-mMSLN-mCD137-huIgG1-LALA antibody molecule FS122m in combination with either of the two chemotherapeutics cisplatin or gemcitabine. For the CT26 model, female BALB/c mice were inoculated via subcutaneous (sc) injection in the right flank with 0.3×10^6 CT26 cells in 0.1 mL of PBS. Mice were randomized to treatment groups (n=10 mice/group) when the average tumor volume reached approximately 50-100 mm^3. For the JC model, female BALB/c mice were inoculated via sc injection at the right upper flank with JC tumor cells (5×10^6) in 0.1 mL of PBS. Treatments were started on day 14 after tumor inoculation when the average tumor size reached approximately 80 mm^3. FS122m and anti-HEL hIgG1 LALA isotype control were given as 5 mg/kg on the first, third and fifth day of treatment (Days 0, 2, and 4) via intraperitoneal (ip) injection. Cisplatin was given on Day 0 at 10 mg/kg via ip injection, and gemcitabine was given on Day 0 at 120 mg/kg via ip injection.
# (§4) Mortality checks were performed once daily. Animals were checked daily for any effects of tumor growth and treatments on normal behavior such as mobility, food and water consumption (by looking only), eye/hair matting and any other abnormal effect as stated in the protocol. Body weights were recorded twice weekly and any mouse with a 20% loss of initial body weight loss was humanely sacrificed. Mice were humanely euthanized if their subcutaneous tumors reached a volume of 2500 mm^3.
# (§5) Body weight was measured and recorded twice weekly until an endpoint was reached. Tumor sizes were measured twice per week in three dimensions using a caliper, and the volume was expressed in mm^3 using the formula: width×length×height×0.5236.
# (§6) Differences in tumor growth between treatment groups were determined using two-way analysis of variance (ANOVA) and Tukey's Multiple Comparisons Test. The significance of survival was determined using Log-rank (Mantel-Cox) test. […]
# [2] = system: JC breast cancer cells; format: in vivo; conditions: for tumor growth inhibition (TGI): FS122m 5 mg/kg ip Days 0, 2, 4; for complete tumor regression: number of mice with complete regression per group
# Description: as §1, §2, §3, §4, §5, §6
# [3] = molecular target: T2, CD137 (Homo sapiens, UniProt Q07011); conditions: monotherapy clinical studies, suspended; cited from earlier work
# T2 construct: Clinical studies of both utomilumab and urelumab monotherapy were however suspended; host or cells: patients (endogenous CD137)
# [4] = molecular target: T1, mouse MSLN; assay: Binding / cross-reactivity to mouse MSLN
# [5] = molecular target: mouse CD137 (Mus musculus, UniProt P20334); assay: Binding / cross-reactivity to mouse CD137
# [6] = gemcitabine combination study, monotherapies Day 14, combination compared on Day 18, FS122m 5 mg/kg ip Days 0, 2, 4, gemcitabine 120 mg/kg ip Day 0
# [7] = gemcitabine combination study, Day 25, relative to the isotype control, gemcitabine 120 mg/kg ip Day 0
# [8] = gemcitabine combination study, isotype control 27 days
# [9] = cisplatin combination study, Day 17, FS122m 5 mg/kg ip Days 0, 2, 4, cisplatin 10 mg/kg ip Day 0
# [10] = cisplatin combination study, FS122m 5 mg/kg ip Days 0, 2, 4, cisplatin 10 mg/kg ip Day 0
# [11] = cisplatin combination study, Day 22 post treatment initiation, compared with the isotype control, cisplatin 10 mg/kg ip Day 0
# [12] = cisplatin combination study, isotype control 22 days
# mouse CD137, sequence (P20334 24-256): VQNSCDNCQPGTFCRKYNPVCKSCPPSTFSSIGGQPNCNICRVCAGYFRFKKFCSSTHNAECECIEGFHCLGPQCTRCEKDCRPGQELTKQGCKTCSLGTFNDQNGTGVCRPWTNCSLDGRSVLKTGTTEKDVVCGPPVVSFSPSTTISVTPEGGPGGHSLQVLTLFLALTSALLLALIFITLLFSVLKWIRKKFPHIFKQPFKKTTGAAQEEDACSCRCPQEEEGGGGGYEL
# T2 sequence (Q07011 24-255): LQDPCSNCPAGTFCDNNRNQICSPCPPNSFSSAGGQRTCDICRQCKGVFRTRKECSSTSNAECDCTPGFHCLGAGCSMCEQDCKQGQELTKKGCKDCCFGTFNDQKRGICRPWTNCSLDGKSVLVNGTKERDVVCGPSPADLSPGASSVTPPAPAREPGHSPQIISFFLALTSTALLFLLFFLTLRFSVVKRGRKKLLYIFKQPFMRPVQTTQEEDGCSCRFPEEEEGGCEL
Molecule,median survival ([1]; gemcitabine combination study),complete tumor regression ([1]; gemcitabine combination study),"tumor growth inhibition (TGI) [1, 6]","tumor growth inhibition (TGI) [2, 7]","median survival [2, 8]",complete tumor regression ([2]; gemcitabine combination study),clinical toxicity [3],"tumor growth inhibition (TGI) [1, 9]","median survival [1, 10]",complete tumor regression ([1]; cisplatin combination study),"tumor growth inhibition (TGI) [2, 11]","median survival [2, 12]",complete tumor regression ([2]; cisplatin combination study),binding affinity for mouse MSLN ([4]; compared with binding affinity of M9657 for human MSLN),binding affinity for mouse CD137 ([5]; compared with binding affinity of M9657 for human CD137),cross-reactivity with mouse MSLN [4],cross-reactivity with mouse CD137 [5]
Nc1ccn([C@@H]2O[C@H](CO)[C@@H](O)C2(F)F)c(=O)n1 [gemcitabine],22 days,no complete tumor regression in any of 9 mice,58.2%,47.8%,36 days,no complete tumor regression in 10 mice,–,–,–,–,–,–,–,–,–,–,–
urelumab: 1st generation CD137 agonist antibody,–,–,–,–,–,–,hepatotoxicity,–,–,–,–,–,–,–,–,–,–
N.N.[Cl][Pt][Cl] [cisplatin],–,no complete tumor regression in 9 mice,–,–,–,no complete tumor regression in 10 mice,–,77.8%,36.5 days,no complete tumor regression in 10 mice,44.9%,29 days,no complete tumor regression in 10 mice,–,–,–,–
"FS122m: mouse surrogate mAb2 of M9657 binding mouse MSLN and murine CD137, human IgG1 LALA; SEQ ID NOs 84 and 85 (antibody, FS122m (surrogate anti-mMSLN mCD137 Fcab G1-AA): Heavy chain AA (with LALA); Light chain AA) heavy: EVQLLESGGGLVQPGGSLRLSCAASGFTFSTYFMVWVRQAPGKGLEWVSMISPKSSNTYYADSVKGRFTISRDNSKNTLYLQMNSLRAEDTAVYYCARYHISPRFDYWGQGTLVTVSSASTKGPSVFPLAPSSKSTSGGTAALGCLVKDYFPEPVTVSWNSGALTSGVHTFPAVLQSSGLYSLSSVVTVPSSSLGTQTYICNVNHKPSNTKVDKKVEPKSCDKTHTCPPCPAPEAAGGPSVFLFPPKPKDTLMISRTPEVTCVVVDVSHEDPEVKFNWYVDGVEVHNAKTKPREEQYNSTYRVVSVLTVLHQDWLNGKEYKCKVSNKALPAPIEKTISKAKGQPREPQVYTLPPSRDEPYWSYVSLTCLVKGFYPSDIAVEWESNGQPENNYKTTPPVLDSDGSFFLYSKLTVMNYRWELGNVFSCSVMHEALHNHYTQKSLSLSPGK light: EIVLTQSPGTLSLSPGERATLSCRASQSVSSSYLAWYQQKPGQAPRLLIYGASSRATGIPDRFSGSGSGTDFTLTISRLEPEDFAVYYCQQPFPFSFTFGQGTKVEIKRTVAAPSVFIFPPSDEQLKSGTASVVCLLNNFYPREAKVQWKVDNALQSGNSQESVTEQDSKDSTYSLSSTLTLSKADYEKHKVYACEVTHQGLSSPVTKSFNRGEC",35 days,3 of 9,61.4%,45.8%,34 days,1 of 10 and 1 out of 10,–,61.3%,24 days,2 of 10 and 2 out of 10,60.1%,33 days,2 of 10,similar,similar,–,–
"M9657: tetravalent bispecific mAb2, Fab binds MSLN, CH3 Fcab binds CD137, human IgG1-LALA; heavy/light chain SEQ ID NOs 2 and 10 (antibody, Heavy chain AA (with LALA); Light chain AA) heavy: EVQLLESGGGLVQPGGSLRLSCAASGFTFTHTYMSWVRQAPGKGLEWVSAISPTYSTTNYADSVKGRFTISRDNNKNTLYLQMNSLRAEDTAVYYCARYNAYHAALDYWGQGTLVTVSSASTKGPSVFPLAPSSKSTSGGTAALGCLVKDYFPEPVTVSWNSGALTSGVHTFPAVLQSSGLYSLSSVVTVPSSSLGTQTYICNVNHKPSNTKVDKKVEPKSCDKTHTCPPCPAPEAAGGPSVFLFPPKPKDTLMISRTPEVTCVVVDVSHEDPEVKFNWYVDGVEVHNAKTKPREEQYNSTYRVVSVLTVLHQDWLNGKEYKCKVSNKALPAPIEKTISKAKGQPREPQVYTLPPSRDELPYIIPPYNQVSLTCLVKGFYPSDIAVEWESNGQPENNYKTTPPVLDSDGSFFLYSKLTVGADRWLEGNVFSCSVMHEALHNHYTQKSLSLSPG light: EIVLTQSPGTLSLSPGERATLSCRASQSVSSSYLAWYQQKPGQAPRLLIYGASSRATGIPDRFSGSGSGTDFTLTISRLEPEDFAVYYCQQTVPYPYTFGQGTKVEIKRTVAAPSVFIFPPSDEQLKSGTASVVCLLNNFYPREAKVQWKVDNALQSGNSQESVTEQDSKDSTYSLSSTLTLSKADYEKHKVYACEVTHQGLSSPVTKSFNRGEC",–,–,–,–,–,–,–,–,–,–,–,–,–,–,–,lack of cross-reactivity,lack of cross-reactivity
